Test results from FireProtDB (doi:10.1002/pro.370).

B1: Guanyl-specific ribonuclease Sa, P05798 (parent)
chain: DVSGTVCLSALPPEATDTLNLIASDGPFPYSQDGVVFQNRESVLPTQSYGYYHEYTVITPGARTRGTRRIITGEATQEDYYTGDHYATFSLIDQTC

Variants of: B1
Details: Kitasatospora aureofaciens, 25 °C, Urea, CD, structure 1RGG, whole UniProt chain shown

Row | Variant | ddG of mutation (higher = less stable) (pH 3, Glycine 30 mM) [kcal/mol] | denaturant m value (pH 3, Glycine 30 mM) [kcal/mol/M] | denaturant midpoint (higher = more stable) (pH 3, Glycine 30 mM) [M] | unfolding free energy (pH 3, Glycine 30 mM) [kcal/mol] | ddG of mutation (higher = less stable) (pH 7, MOPS 30 mM) [kcal/mol] | denaturant m value (pH 7, MOPS 30 mM) [kcal/mol/M] | denaturant midpoint (higher = more stable) (pH 7, MOPS 30 mM) [M] | unfolding free energy (pH 7, MOPS 30 mM) [kcal/mol]
1 | D1K D17K E41K D25K E74K D79K | -0.2 | 2.25 | 1.2 | 2.7 | -0.7 | 1.03 | 6.9 | 7.1
2 | R40E | -0.3 | 1.52 | 1.9 | 2.9 |  |  |  | 
3 | D1K D17K E41K | -0.7 | 1.95 | 1.7 | 3.3 | 2.7 | 0.93 | 4 | 3.7
4 | D1K D17K E41K D25K E74K | -0.9 | 1.92 | 1.8 | 3.5 | 0.7 | 1.07 | 5.3 | 5.7
5 | R40E R63E R65A R68A R69A | -2.7 | 1.17 | 4.5 | 5.3 | 2.5 | 0.85 | 4.6 | 3.9
6 | R40E R63E | -1.1 | 1.66 | 2.2 | 3.7 |  |  |  | 
7 | D1K D17K E41K D25K E74K D79K S31K | 0 | 2.37 | 1.1 | 2.6 | -0.2 | 1.15 | 5.7 | 6.6
